Experiments:
[1] = solubility of lyophilized modification products in water or PBS; format: physicochemical; settings: dissolved in water or PBS
From the text: The modification products of bovine serum albumin and human immunoglobulin G separated using HPLC as described in Example 2 were adequately dialyzed against water and lyophilized. The lyophilized modification products and lyophilized unmodified counterparts for both of the proteins were similarly dissolved in water or PBS.

bovine serum albumin = target: T1, bovine serum albumin (Bos taurus, UniProt P02769); assay: galactose content of the protein modified with agarooligosaccharides (hydrolysis, 2-aminopyridine labelling, HPLC); format: biochemical; settings: reacted with agarooligosaccharides in PBS pH 7.2, 37° C., 24 hours
T1 construct: purchased Sigma A0281
T1 sequence (P02769 25-607): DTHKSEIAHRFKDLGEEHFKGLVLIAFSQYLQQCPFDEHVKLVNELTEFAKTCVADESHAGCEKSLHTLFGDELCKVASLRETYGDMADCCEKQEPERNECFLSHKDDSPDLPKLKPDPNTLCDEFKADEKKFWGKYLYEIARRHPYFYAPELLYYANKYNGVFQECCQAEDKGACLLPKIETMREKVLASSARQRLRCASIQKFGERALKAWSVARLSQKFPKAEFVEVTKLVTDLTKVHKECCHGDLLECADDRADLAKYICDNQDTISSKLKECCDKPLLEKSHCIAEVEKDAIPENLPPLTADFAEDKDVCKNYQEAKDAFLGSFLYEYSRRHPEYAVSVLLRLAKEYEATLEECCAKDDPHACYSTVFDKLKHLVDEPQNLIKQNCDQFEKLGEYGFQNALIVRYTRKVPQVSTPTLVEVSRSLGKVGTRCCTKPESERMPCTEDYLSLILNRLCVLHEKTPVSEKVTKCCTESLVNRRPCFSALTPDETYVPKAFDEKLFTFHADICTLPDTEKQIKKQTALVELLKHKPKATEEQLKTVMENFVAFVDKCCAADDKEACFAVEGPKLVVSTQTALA
Experimental: A solution containing the agarooligosaccharides as described in Example 1-(1) at a concentration of 100 mg/ml and a solution containing bovine serum albumin (Sigma, A0281) at a concentration of 11.1 mg/ml in PBS (pH 7.2) were mixed at a ratio of 1:9. The mixture was reacted at 37° C. for 24 hours to obtain a modification product of bovine serum albumin.
In order to confirm that the agarooligosaccharides were attached to the proteins, the modification products of the proteins were dialyzed to remove free agarooligosaccharides, and only high molecular weight fractions were collected by HPLC. HPLC was carried out as follows.
The protein concentrations in the separated fractions were determined by measuring the absorbances at 280 nm, and fractions containing the proteins were collected. As a control, unmodified counterparts for both of the proteins were also separated under the same conditions. Next, the galactose contents in the collected protein fractions were measured. […] The reducing ends of the resulting monosaccharides were fluorescence-labeled with 2-aminopyridine using GlycoTAG and GlycoTAG Reagent kit (both from Takara Shuzo). The sugar compositions were analyzed according to a conventional method by HPLC (Agric. Biol. Chem. 55, 283-284 (1991)) to determine the galactose contents in the respective protein fractions. […]

molecules of galactose attached to one molecule of the modification product (bovine serum albumin): eight
Substance: modification product of bovine serum albumin: bovine serum albumin reacted with the agarooligosaccharides in PBS at 37° C. for 24 hours
solubility compared with unmodified counterparts [1]: superior to that of the unmodified counterparts

From patent publication US20040077845A1, “Modifier” (priority 2001, published 2004)
